The target of one assay is FcγRIIIa (F) variant (UniProt P08637). The experiment in a line: SPR (ProteOn XPR36), antibody captured on immobilized HER-2, FcγR as analyte, 1:1 Langmuir fit.
The next assay addresses FcγRIIb (UniProt P31994). Described as above.
Sequence of UniProt P31994 (P31994 43-217 limits assumed): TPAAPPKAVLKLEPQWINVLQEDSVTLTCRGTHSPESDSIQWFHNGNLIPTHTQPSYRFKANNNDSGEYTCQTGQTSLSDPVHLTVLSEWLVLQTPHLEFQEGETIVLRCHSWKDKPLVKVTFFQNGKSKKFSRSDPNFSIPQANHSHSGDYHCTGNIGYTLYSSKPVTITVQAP

Sequence of UniProt P08637 (P08637 17-208 limits assumed, change not shown): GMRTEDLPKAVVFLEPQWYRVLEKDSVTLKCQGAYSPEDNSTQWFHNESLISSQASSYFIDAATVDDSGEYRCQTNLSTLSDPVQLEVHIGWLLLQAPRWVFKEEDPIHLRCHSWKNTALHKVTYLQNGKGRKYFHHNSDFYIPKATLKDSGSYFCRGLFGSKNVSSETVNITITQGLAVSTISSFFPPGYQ

For the substance “Trastuzumab variant G237F/S298A/A330L/I332E (antibody)”, the Kd in the assay with FcγRIIIa (F) variant was found to be 0.429 µM; with FcγRIIb, 7.63 µM.

The Kd is a measure of binding affinity in units of concentration. Low values mean higher affinity, high ones lower affinity.

Values taken from US20160159921A1.
